{"source": "patent US20250027068", "proteins": {"B1": {"name": "PRT-350 (protein)", "chain": "MSQTEDSESLQRLRDIEDFQAEKKDQNVVYTKWLDGVDVKDHDFRKIVDGNSAYYATPLLNGRGWYDINKDFNRDSDKCAAAVAANMFHYWLDINRDNVDRFLRQNPEKHGIIELPDGQLKLSDFLNTYESDHGYRDKSKLFDFISENFNGPVWTDKLLDNYINGYAYNYKYGRTIEDPTKNTSKINFFKEVFNEKILTNNHSIRNQNEFSVLLIEALYTGKAIGLSYGPAGLRHSLGHIISVWGADLDADGNVVAIYVTDSDDKKLTIGDERVGLKRYKISTDDENRLRLTAYEETHNTGGQVRGLWTLDTGKYAWADYFDKTEQTGTDQAEQ"}, "B2": {"name": "PRT-351 (protein)", "chain": "B1 chain with D25M, W65F, V304I"}, "B3": {"name": "PRT-359 (protein)", "chain": "B1 chain with S52I, W65L, I94R, H133D, F210L, I215S, N287G, Y315Q"}, "B4": {"name": "PRT-358 (protein)", "chain": "B1 chain with S52I, I94R, H133D, N287G, Y315Q"}, "B5": {"name": "PRT-367 (protein)", "chain": "B1 chain with K24E, D25K, S76N, I94R, H133D, E147N, P179S, I215S, N287G, Y315Q"}, "B6": {"name": "PRT-295 (protein)", "chain": "MVTSVWTKGVTPPADFTQGEDVFHAPYDANQGWYDITKTFNGKDDLLCGAATAGNMLHWWFDQNKEYIEAYLKKHPEKQKIMFGDQELLDVRKAINTKGSQKNSELFNYFRDKAFPNLSARRLGVMPDLVLDMFINGYYLNVTKTQTTDVNRTYQEKDKRGGIFDAVFTRGDQSKLLTSRHDFKEKGLKEISDLIKQELTEGKALGLSHTYANVRISHVINLWGADFDSDGNLKAIYVTDSDSNASIGMKKYFVGVNSSGKVAISAKEIKEDNIGAQVLGLFTLSTGQDIWNQTN"}, "B7": {"name": "PRT-296 (protein)", "chain": "B6 chain with D28V, T39E, S217G, F253G, S259A"}, "B8": {"name": "PRT-303 (protein)", "chain": "B6 chain with A14T, T17I, Q18K, N30G, F253G, S259A"}, "B9": {"name": "PRT-304 (protein)", "chain": "B6 chain with A14T, T17I, Q18K, N30G"}, "B10": {"name": "PRT-366 (protein)", "chain": "MSQTEDSESLQRLRDIEDFQAEKEKQNVVYTKWLDGVDVKDHDFRKIVDGNSAYYATPLLNGRGFYDINKDFNRDNDKCAAAVAANMFHYWLDRNRDNVDRFLRQNPEKHGIIELPDGQLKLSDFLNTYESDDGYRDKSKLFDFISNNFNGPVWTDKLLDNYINGYAYNYKYGRTIEDSTKNTSKINFFKEVFNEKILTNNHSIRNQNEFSVLLSEALYTGKAIGLSYGPAGLRHSLGHIISVWGADLDADGNVVAIYVTDSDDKKLTIGDERVGLKRYKISTDDEGRLRLTAYEETHNTGGQVRGLWTLDTGKQAWADYFDKTEQTGTDQAEQ"}, "B11": {"name": "PRT-311 (protein)", "chain": "MQITSVWTKGVTPLTPEQFRENNEDVIHAPYLAHQGWYDITKAFDGKDNLLCGAATAGNMLHWWFDQNKTEIEAYLSKHPEKQKIIFNNQEWFDLKAAIDTKDSQTNSQLFNYFRDKAFPNLSARQLGVMPDLVLDMFINGYYLNVPKTQSTDVNRPYQDKDKRGGIFDAVFTRGDQTTLLTARHDLKNKGLNDISTIIKQELTEGRALALSHTYANVSISHVINLWGADFNAEGNLEAIYVTDSDANASIGMKKYAVGINAHGHVAISAKKIEGENIGAQVLGLFTLSSGKDIWQKLS"}, "B12": {"name": "PRT-312 (protein)", "chain": "B11 chain with N88G, W92L, P147G, A249P, A257F, I260R"}, "B13": {"name": "PRT-319 (protein)", "chain": "MTITSVWTKGVTPPTPEDFRENNEDVLHAPYVANQGWYDITKTFDGKDNLLCGAATAGNMLHWWFDQNKEEIERYLKKHPEKQKIIFNNQELFDVKAAIDTKDSQTNSKLFDYFRDKAFPNLSARQLGVMPDLVLDMFINGYYLNLGKTQSTDVNRPYQDKDKRGGIFDAVFTRGDQTTLLTARHDLKNKGLNEISDLIKQELTEGKALALSHTYANVRINHVINLWGADFDAEGNLIAIYVTDSDANASIGMKKYFVGRNANGKVAISAKKIEGDNIGAQVLGLFTLSLGQDIWQKLS"}, "B14": {"name": "PRT-328 (protein)", "chain": "B13 chain with E21K, D112N, N121G, M130F, D176V, L290T"}, "B15": {"name": "PRT-342 (protein)", "chain": "B13 chain with V32L, T43A, N88G, D112N, R219S, I238E, A249P, N263H, L290T"}, "B16": {"name": "PRT-335 (protein)", "chain": "B13 chain with N88G, N121G, M130F, D176V, N236E, A249P, L290T, I294Q"}, "B17": {"name": "PRT-327 (protein)", "chain": "B13 chain with N236E, A249P, L290T"}, "B18": {"name": "PRT-343 (protein)", "chain": "B13 chain with V32L, T43A, N88G, R219S, N236E, I238E, A249P, N263H, L290T"}, "B19": {"name": "PRT-334 (protein)", "chain": "B13 chain with N88G, N121G, M130F, D176V, N236E, A249P, L290T"}, "B20": {"name": "PRT-320 (protein)", "chain": "B13 chain with N88G, L290T, I294Q"}}, "note": "Substitutions are numbered along the chain they refer to."}
{"target": "pooled human IgG (human IgG1,2,3 and 4)", "units": {"Enzyme Activity Endpoint Assay (purified): Fab'2": "ng/µL", "Enzyme Activity Endpoint Assay (purified): Fc": "ng/µL", "Enzyme Activity Endpoint Assay (purified): IgG": "ng/µL", "Enzyme Activity Endpoint Assay (purified): scIgG": "ng/µL"}}
{"protein": "B1", "Enzyme Activity Endpoint Assay (purified): Fab'2": 520, "Enzyme Activity Endpoint Assay (purified): Fc": 243, "Enzyme Activity Endpoint Assay (purified): IgG": 668, "Enzyme Activity Endpoint Assay (purified): scIgG": 200}
{"protein": "B2", "Enzyme Activity Endpoint Assay (purified): Fab'2": 37, "Enzyme Activity Endpoint Assay (purified): Fc": 191, "Enzyme Activity Endpoint Assay (purified): IgG": 86, "Enzyme Activity Endpoint Assay (purified): scIgG": 638}
{"protein": "B3", "Enzyme Activity Endpoint Assay (purified): Fab'2": 260, "Enzyme Activity Endpoint Assay (purified): Fc": 340, "Enzyme Activity Endpoint Assay (purified): IgG": 202, "Enzyme Activity Endpoint Assay (purified): scIgG": 677}
{"protein": "B4", "Enzyme Activity Endpoint Assay (purified): Fab'2": 8, "Enzyme Activity Endpoint Assay (purified): Fc": 90, "Enzyme Activity Endpoint Assay (purified): IgG": 86, "Enzyme Activity Endpoint Assay (purified): scIgG": 375}
{"protein": "B5", "Enzyme Activity Endpoint Assay (purified): Fab'2": 351, "Enzyme Activity Endpoint Assay (purified): Fc": 361, "Enzyme Activity Endpoint Assay (purified): IgG": 100, "Enzyme Activity Endpoint Assay (purified): scIgG": 518}
{"protein": "B6", "Enzyme Activity Endpoint Assay (purified): Fab'2": 529, "Enzyme Activity Endpoint Assay (purified): Fc": 398, "Enzyme Activity Endpoint Assay (purified): IgG": 446, "Enzyme Activity Endpoint Assay (purified): scIgG": 0}
{"protein": "B7", "Enzyme Activity Endpoint Assay (purified): Fab'2": 955, "Enzyme Activity Endpoint Assay (purified): Fc": 443, "Enzyme Activity Endpoint Assay (purified): IgG": 0, "Enzyme Activity Endpoint Assay (purified): scIgG": 0}
{"protein": "B8", "Enzyme Activity Endpoint Assay (purified): Fab'2": 1080, "Enzyme Activity Endpoint Assay (purified): Fc": 482, "Enzyme Activity Endpoint Assay (purified): IgG": 0, "Enzyme Activity Endpoint Assay (purified): scIgG": 0}
{"protein": "B9", "Enzyme Activity Endpoint Assay (purified): Fab'2": 711, "Enzyme Activity Endpoint Assay (purified): Fc": 320, "Enzyme Activity Endpoint Assay (purified): IgG": 0, "Enzyme Activity Endpoint Assay (purified): scIgG": 0}
{"protein": "B10", "Enzyme Activity Endpoint Assay (purified): Fab'2": 0, "Enzyme Activity Endpoint Assay (purified): Fc": 122, "Enzyme Activity Endpoint Assay (purified): IgG": 777, "Enzyme Activity Endpoint Assay (purified): scIgG": 472}
{"protein": "B11", "Enzyme Activity Endpoint Assay (purified): Fab'2": 261, "Enzyme Activity Endpoint Assay (purified): Fc": 295, "Enzyme Activity Endpoint Assay (purified): IgG": 109, "Enzyme Activity Endpoint Assay (purified): scIgG": 496}
{"protein": "B12", "Enzyme Activity Endpoint Assay (purified): Fab'2": 703, "Enzyme Activity Endpoint Assay (purified): Fc": 330, "Enzyme Activity Endpoint Assay (purified): IgG": 53, "Enzyme Activity Endpoint Assay (purified): scIgG": 54}
{"protein": "B13", "Enzyme Activity Endpoint Assay (purified): Fab'2": 670, "Enzyme Activity Endpoint Assay (purified): Fc": 372, "Enzyme Activity Endpoint Assay (purified): IgG": 32, "Enzyme Activity Endpoint Assay (purified): scIgG": 0}
{"protein": "B14", "Enzyme Activity Endpoint Assay (purified): Fab'2": 1000, "Enzyme Activity Endpoint Assay (purified): Fc": 455, "Enzyme Activity Endpoint Assay (purified): IgG": 75, "Enzyme Activity Endpoint Assay (purified): scIgG": 0}
{"protein": "B15", "Enzyme Activity Endpoint Assay (purified): Fab'2": 15, "Enzyme Activity Endpoint Assay (purified): Fc": 209, "Enzyme Activity Endpoint Assay (purified): IgG": 206, "Enzyme Activity Endpoint Assay (purified): scIgG": 841}
{"protein": "B16", "Enzyme Activity Endpoint Assay (purified): Fab'2": 38, "Enzyme Activity Endpoint Assay (purified): Fc": 154, "Enzyme Activity Endpoint Assay (purified): IgG": 74, "Enzyme Activity Endpoint Assay (purified): scIgG": 514}
{"protein": "B17", "Enzyme Activity Endpoint Assay (purified): Fab'2": 460, "Enzyme Activity Endpoint Assay (purified): Fc": 338, "Enzyme Activity Endpoint Assay (purified): IgG": 472, "Enzyme Activity Endpoint Assay (purified): scIgG": 0}
{"protein": "B18", "Enzyme Activity Endpoint Assay (purified): Fab'2": 154, "Enzyme Activity Endpoint Assay (purified): Fc": 266, "Enzyme Activity Endpoint Assay (purified): IgG": 129, "Enzyme Activity Endpoint Assay (purified): scIgG": 682}
{"protein": "B19", "Enzyme Activity Endpoint Assay (purified): Fab'2": 59, "Enzyme Activity Endpoint Assay (purified): Fc": 257, "Enzyme Activity Endpoint Assay (purified): IgG": 154, "Enzyme Activity Endpoint Assay (purified): scIgG": 738}
{"protein": "B20", "Enzyme Activity Endpoint Assay (purified): Fab'2": 778, "Enzyme Activity Endpoint Assay (purified): Fc": 339, "Enzyme Activity Endpoint Assay (purified): IgG": 53, "Enzyme Activity Endpoint Assay (purified): scIgG": 0}
